Results: publication PMC10725331
pKd: −log10 of the molar value.

What was measured:
Test in all cases: direct binding assay (cell-free, plate-based luminescence); GFP-TRKB from 120 ug HEK293T lysate captured on anti-GFP coated 96-well plate; biotinylated BDNF 0.1-100 pM added for 1 h at RT in PBS; HRP-streptavidin and ECL; blank wells subtracted
GFP-TRKB.Tyr433Phe (rat) = GFP-TRKB.Tyr433Phe (rat) (UniProt Q63604)
GFP-TRKB.wt (rat) = GFP-TRKB.wt (rat) (UniProt Q63604)
GFP-TRKB/TRKA.TM (rat) = GFP-TRKB/TRKA.TM (rat) (UniProt Q63604)

pKd (GFP-TRKB.Tyr433Phe (rat)): 12.36
pKd (GFP-TRKB.wt (rat)): 12.41
pKd (GFP-TRKB/TRKA.TM (rat)): 12.41
Substance: biotinylated BDNF (brain-derived neurotrophic factor) (ligand)
